Source: article PMC2713044

Biological target: Hen egg white lysozyme (HEL) (UniProt P00698)
Experiment: isothermal titration calorimetry
Conditions: pH 8.0, 25.0 °C, no added salt (10 mM buffer only), 10 mM Tris

UniProt P00698, sequence (P00698 whole entry): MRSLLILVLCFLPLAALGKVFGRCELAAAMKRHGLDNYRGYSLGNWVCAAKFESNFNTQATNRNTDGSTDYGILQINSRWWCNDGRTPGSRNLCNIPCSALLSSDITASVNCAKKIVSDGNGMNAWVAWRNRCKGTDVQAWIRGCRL

ΔH: -20.5 kcal/mol
Substance: HyHEL-10 (HH10) monoclonal antibody, whole IgG1
